效价 (ELISA titer) (fold dilution) data for one molecule are collected here from patent CN116819103A.

The target of the assay is 大熊猫TSHβ亚基特异序列多肽片段TSHβ-2 (大熊猫 (giant panda)). Description: indirect ELISA, peptide TSHβ-2 coated at 2 μg/mL, HRP goat anti-mouse, OD450. In general terms: An ELISA detects its analyte on a solid surface through an enzyme-linked reagent.
Chain of 大熊猫TSHβ亚基特异序列多肽片段TSHβ-2 (大熊猫 (giant panda)) (peptide, as listed by the source): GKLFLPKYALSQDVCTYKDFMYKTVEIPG

B1: 大熊猫TSHβ单克隆抗体 (杂交瘤细胞株TSHB-B, CCTCC NO: C202283) (antibody, IgG1, V domains shown)
VH: EVKLVESGGGLVKPGGSLKLSCAASGFSFSRYAMSWVRHAPENRLEWVAAISRGGNLYYRDSVKGRFTISRDDARNILYLQMSSLRSEDTAMYYCTRDDYDEDWYFDVWGAGTTVTVSS
VL: DVLMTQTPLSLPVSLGEQASISCRSSQIIVHSNGNTYLEWYLQKPGQSPKLLIYKVSNRFSGVPDRFSGSGSGTDFTLKISRVEAEDLGVYYCFHGSHIPPTFGGGTKLEIK
For B1, the 效价 (ELISA titer) (fold dilution) was greater than 1e+06.
